Data from paper PMC9133466.
Blank lines part the entries; values can stand above or below the binder they belong to. Where no end group is shown, it is not given here. [ ]: non-standard residue; d: D form.

Experiments:
[1] = molecular target: amyloid beta (Aβ) of human brain homogenate (human (endogenous in human brain))
[2] = molecular target: amyloid beta (Aβ) of human brain homogenate (human (endogenous in human brain)); remark: listed apart in the source
[3] = molecular target: amyloid beta (Aβ) of APP/PS1 mouse brain homogenate (human)
[4] = molecular target: amyloid beta (Aβ) of human brain homogenate (human (endogenous in human brain)); remark: listed apart in the source

reduction of Aβ oligomer signal by sFIDA; human AD brain homogenate AD2 diluted 1:40 (similar at 1:10 and 1:20), 0.31-20 μM D1, 24 h [1]: 27%
B1: D1 (peptide)
peptide: [dQ][dS][dH][dY][dR][dH][dI][dS][dP][dA][dQ][dV]-NH2
modifications: N-terminus assumed
SMILES: CC[C@@H](C)[C@@H](NC(=O)[C@@H](Cc1c[nH]cn1)NC(=O)[C@@H](CCCNC(=N)N)NC(=O)[C@@H](Cc1ccc(O)cc1)NC(=O)[C@@H](Cc1c[nH]cn1)NC(=O)[C@@H](CO)NC(=O)[C@H](N)CCC(N)=O)C(=O)N[C@H](CO)C(=O)N1CCC[C@@H]1C(=O)N[C@H](C)C(=O)N[C@H](CCC(N)=O)C(=O)N[C@@H](C(N)=O)C(C)C

reduction of Aβ oligomer concentration (Aβ with Aβ) by sFIDA; human AD brain homogenate AD2 diluted 1:10, 0.31-20 μM RD2, 24 h [1]: 93%
reduction of Aβ oligomer concentration (Aβ with Aβ) by sFIDA; human AD brain homogenate AD2 diluted 1:20, 0.31-20 μM RD2, 24 h [1]: 95%
reduction of Aβ oligomer concentration (Aβ with Aβ) by sFIDA; human AD brain homogenate AD2 diluted 1:40, 0.31-20 μM RD2, 24 h [1]: 96%
decrease of Aβ oligomer concentration (Aβ with Aβ) by sFIDA; human AD brain homogenate AD2 diluted 1:20, 1.25-20 μM RD2, 0 to 1,365 min [2]: 93%
decrease of Aβ oligomer concentration (Aβ with Aβ) by sFIDA; human AD brain homogenate AD4 diluted 1:20, 1.25-20 μM RD2, 0 to about 23 h [2]: 91%
decrease of Aβ oligomer concentration (Aβ with Aβ) by sFIDA; human AD brain homogenate AD5 diluted 1:20, 1.25-20 μM RD2, 0 to about 23 h [2]: 89%
decrease of Aβ oligomer concentration (Aβ with Aβ) by sFIDA; human AD brain homogenate AD6 diluted 1:20, 1.25-20 μM RD2, 0 to 1,425 min [2]: 90%
reaction rate constant k (1,fast) of Aβ oligomer elimination by RD2 (global double exponential fit, effective RD2 1 and 16 μM); homogenate AD2 (L∗mol^−1∗min^−1) [2]: 2330
reaction rate constant k (1,fast) of Aβ oligomer elimination by RD2 (global double exponential fit, effective RD2 1 and 16 μM); homogenate AD4 (L∗mol^−1∗min^−1) [2]: 2930
reaction rate constant k (1,fast) of Aβ oligomer elimination by RD2 (global double exponential fit, effective RD2 1 and 16 μM); homogenate AD5 (L∗mol^−1∗min^−1) [2]: 2370
reaction rate constant k (1,fast) of Aβ oligomer elimination by RD2 (global double exponential fit, effective RD2 1 and 16 μM); homogenate AD6 (L∗mol^−1∗min^−1) [2]: 1280
reaction rate constant k (1,slow) of Aβ oligomer elimination by RD2 (global double exponential fit, effective RD2 1 and 16 μM); homogenate AD2 (L∗mol^−1∗min^−1) [2]: 76
reaction rate constant k (1,slow) of Aβ oligomer elimination by RD2 (global double exponential fit, effective RD2 1 and 16 μM); homogenate AD4 (L∗mol^−1∗min^−1) [2]: 37
reaction rate constant k (1,slow) of Aβ oligomer elimination by RD2 (global double exponential fit, effective RD2 1 and 16 μM); homogenate AD5 (L∗mol^−1∗min^−1) [2]: 50
reaction rate constant k (1,slow) of Aβ oligomer elimination by RD2 (global double exponential fit, effective RD2 1 and 16 μM); homogenate AD6 (L∗mol^−1∗min^−1) [2]: 48
reduction of Aβ oligomer concentration (Aβ with Aβ) by sFIDA; DGC fraction 10 of APP/PS1 mouse brain homogenate diluted 1:2, 0-50 μM RD2, 0 min to 20 h, 4 °C [3]: 81%
reduction of Aβ oligomer concentration (Aβ with Aβ) by sFIDA; DGC fraction 10 of human AD brain homogenate AD2 diluted 1:10, 5 and 20 μM RD2, 0 to 1,380 min [4]: 92%
reduction of Aβ oligomer concentration (Aβ with Aβ) by sFIDA; DGC fraction 10 of human AD brain homogenate AD6 diluted 1:10, 5 and 20 μM RD2, 0 to 1,380 min [4]: 88%
reduction of Aβ oligomer concentration (Aβ with Aβ) by sFIDA; pooled DGC fractions 4 to 6 of human AD brain homogenate AD2, 20 μM RD2, 1,380 min [4]: 64%
reduction of Aβ oligomer concentration (Aβ with Aβ) by sFIDA; pooled DGC fractions 4 to 6 of human AD brain homogenate AD6, 20 μM RD2, 1,380 min [4]: 62%
B2: RD2 (peptide)
peptide: [dP][dT][dL][dH][dT][dH][dN][dR][dR][dR][dR][dR]-NH2
modifications: N-terminus assumed
SMILES: CC(C)C[C@@H](NC(=O)[C@H](NC(=O)[C@H]1CCCN1)[C@H](C)O)C(=O)N[C@H](Cc1c[nH]cn1)C(=O)N[C@@H](C(=O)N[C@H](Cc1c[nH]cn1)C(=O)N[C@H](CC(N)=O)C(=O)N[C@H](CCCNC(=N)N)C(=O)N[C@H](CCCNC(=N)N)C(=O)N[C@H](CCCNC(=N)N)C(=O)N[C@H](CCCNC(=N)N)C(=O)N[C@H](CCCNC(=N)N)C(N)=O)[C@H](C)O
